Data published in IntAct's records for PubMed 14685270.

B1: Protein cup (Drosophila melanogaster (Fruit fly)), Q9VMA3 (parent)
chain: MQMAEAEQENGAGALKIATNAGATDRPAHQQLPLPVEDQQDEVLTPAEKGKFEYPPPPPPPTPVQAPLATKATALNASQEHDDDEANSEKWEDPCAPPPPPPLPTSAFLATGLGYLKLPAFKLKDALEKAITKLEANKRTLKASPESSRSIKNKNVVALEMLPRRSNPETIGDGSMLASTSTAVMLQTKKPAVIVEMERRCKIINLLAKQNQILESISGEAIPMHGPSKHLHEDEGLTLQVLSARASTPYTQPSSMLSCTAVSCDLEHDSPRKQVASKEAVPEQQSSQVQQKRPPSTGIHKPGSLRAPKAVRPTTAPVVSSKPVKSYTRSRLMDIRNGMFNALMHRSKESFVMPRIATCDDIELEGRLRRMNIWRTSDGTRFRTRSTTANLNMNNNNNNECMPAFFKNKNKPNLISDESIIQSQPPQPQTEFQDPAIVNQRRIGSGRLNHSKWGYNDEDYHSYHNGKSQHMEEVNSKNSKNMTVLQFFDNGEISSQPQRRPNTPVMGMSINRSENDTLHSNESSEDLSRANENYVKRVMSGFLVVSKPKSRDVEDRHHRRYRNQNEEPEWFSCGPTSRLDTIELCGFDEDEEKMLKEGNKNHGLGETERETSKQKMDHKYKWTHAEPMGRSKYMPKHDTNNNHNVENMNNVMATEHQQQKEEKRPGSGRSFQFDKFNQSQQNYESSSYVNHQQPPQTQPQQMQQQSNTNTNNSKFMSFFANEGNSSSSSLNEFFKQAINQGHGNNPEQPKSLGHIGQMPSVDQLEAKWRRNSLNNVGETANKQTDNFQKLIGSLSSAKPQSQAVGYDAISNFIMQQQQYQQQQQKQHLIIQQQQQHTAFLASLQLKAILGRADTQLLLLRLTKGEISKHGLLVQLANPRLTDMDREAITAVLQFTNTQQQQQQHKQQLDMLSSTVIASQLQNLHNLAIVQQTLAARQQPQHNPQTQAPHQLSQEDLQAHANVIMRNAVMKRKIEEQTSKLINGGAKHQAQQQYLNRGQQRQARPDANSNALLHALISGGGNNHASGYPMNGQPQKHHSNLRFGDNQNFQSFESNQPHFATQYKQQYQQSQQQHPHQQPQQLNSLHQNNAGAVNSFNKAQMQAQSAISMLPNSGDEFH
partner: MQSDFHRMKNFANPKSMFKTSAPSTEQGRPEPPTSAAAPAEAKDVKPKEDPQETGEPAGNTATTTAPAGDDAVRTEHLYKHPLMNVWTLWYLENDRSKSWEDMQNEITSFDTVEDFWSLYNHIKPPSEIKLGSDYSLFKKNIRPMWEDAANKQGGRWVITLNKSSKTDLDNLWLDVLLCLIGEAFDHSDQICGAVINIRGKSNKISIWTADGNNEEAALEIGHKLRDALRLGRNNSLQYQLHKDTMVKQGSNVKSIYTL
B2: Eukaryotic translation initiation factor 4E1 (Drosophila melanogaster (Fruit fly)), P48598 (parent)
chain: B1 partner
partner: B1 chain

Variants of: B1
Conditions: with if4e_drome eIF4E1, P48598

Question: How did the “effect of a mutation on the interaction” value turn out when Y327A;L364A;L368A was run?
Answer: disrupting interaction

Question: For Y327A, which “effect of a mutation on the interaction” value is on record?
Answer: decreasing interaction

Variants of: B1
Conditions: with if4e_drome eIF4E1, P48598
Remark: another data set of the same source

Question: Which “effect of a mutation on the interaction” value does the source give for Y327A here?
Answer: disrupting interaction

Question: How did the “effect of a mutation on the interaction” value turn out when L364A;L368A was run?
Answer: disrupting interaction

Variants of: B2
Conditions: with cup_drome cup, Q9VMA3

Question: With MQSDFHRMKNFANPKSMFKTSAPSTEQGRPEPPTSAAAPAEAKDVKPKEDPQETGEPAGNTATTTAPAGDDAVRTEHLYKHPLMNVWTLWYLENDRSKSWEDMQNAITSFDTVEDFWSLYNHIKPPSEIKLGSDYSLFKKNIRPMWEDAANKQGGRWVITLNKSSKTDLDNLWLDVLLCLIGEAFDHSDQICGAVINIRGKSNKISIWTADGNNEEAALEIGHKLRDALRLGRNNSLQYQLHKDTMVKQGSNVKSIYTL [E106A] as the variant, how does the “effect of a mutation on the interaction” value read?
Answer: disrupting interaction
